Assay: soluble on expression in E. coli; label from the status in PepcDB or PDB records

Sequence | soluble on expression in E. coli
MASVASCDSRPSSDELPGDPSSQEEDEDYDFEDRVSDSGSYSSASSDYDDLEPEWLDSVQKNGELFYLELSEDEEESLLPETPTVNHVRFSENEIIIEDDYKERKKYEPKLKQFTKILRRKRLLPKRCNKKNSNDNGPVSILKHQSNQKTGVIVQQRYKDVNVYVNPKKLTVIKAKEQLKLLEVLVGIIHQTKWSWRRTGKQGDGERLVVHGLLPGGSAMKSGQVLIGDVLVAVNDVDVTTENIERVLSCIPGPMQVKLTFENAYDVKRETSHPRQKKTQSNTSDLVKLLWGEEVEGIQQSGLNTPHIIMYLTLQLDSETSKEEQEILYHYPMSEASQKLKSVRGIFLTLCDMLENVTGTQVTSSSLLLNGKQIHVAYWKESDKLLLIGLPAEEIELPSSAHTHGERN | soluble
MANSLRNVNDYDPFKYRPSYFDLEAPTESFALGKFVDAIEVKQMALDAFSESSMVSIATSQLPKTAYTATSFIESEYYSFPYLFNDQKYYWDYFDYKIPAADFAVLELELDLNNQQDQQIKDHFIDPAIKAYKQLGDSTGLFATKPLTEYQNDTHYLLGYPVVPTDHTQLWECKQGAERFSYGYFYSNMARLTKNLRQGDPNAGSKTHIEYSNELLDKDSMDQGIVRFSTFLGANINYHDYDYRQQGYGLTLTDTNLPGGSSGSLVFNQDKKISSIYSAATESDSVGYAQLLRTPRDVNGISVVSQSYDLIFGDSNTKRYYAMFAKKQQTHLYSEILKSTDEQYRYVVDKQFN | soluble
MSLSTYILNTNDKARERLSLQHQLYAKSSLDLLSEVGPSAAMTALEIGCGSGDMTLELAKLIGREGSLLTIDLSQDQLDHTQQRTRTYSNIRFKVWDVNHLSDLGEKFDLIYCRMVLHHVADARSVILQMKNCLNSGGFVVCEEPSLFDSTFCSPPSPSYDQFTQWARSCFSKSNRDFQIAHRLEQEFSSCGFEIEHCSLFQPLLRTNKEKLIYSMALDDLTPQLLELGIAKREEIKQLHNELEDLAKTNSTMCWIRMHKIIAKLNEGHHHHHH | soluble
MSFSERLLAAWYQGHPALALLRPLEALYRRVANGRRADFLSGRKPAYRAPLPVLVVGNITVGGTGKTPMILWMIEHCRARGLRVGVISRGYGARPPTTPWRVRAEQDAAEAGDEPLMIVRRSGVPLMIDPDRPRALQALLAEEQLDLVLCDDGLQHYRLARDLELVLIDAARGLGNGRCLPAGPLREPAERLESVDALLYNGADEDPDGGYAFRLQPTALINLQSGERRPLEHFPAGQEVHALAGIGNPQRFFRTLEALHWRAIPHAFPDHATYTAAELAFSPPLPLLMTEKDAVKCRAFAAADWWYLAVDAVPSPAFVAWFDARLEH | not soluble
MNAWEVNFDGLVGLTHHYAGLSFGNEASTRHRFQVSNPRLAAKQGLLKMKALADAGFPQAVIPPHERPFIPVLRQLGFSGSDEQVLEKVARQAPHWLSSVSSASPMWVANAATIAPSADTLDGKVHLTVANLNNKFHRSLEAPVTESLLKAIFNDEEKFSVHSALPQVALLGDEGAANHNRLGGHYGEPGMQLFVYGREEGNDTRPSRYPARQTREASEAVARLNQVNPQQVIFAQQNPDVIDQGVFHNDVIAVSNRQVLFCHQQAFARQSQLLANLRARVNGFMAIEVPATQVSVSDTVSTYLFNSQLLSRDDGSMMLVLPQECREHAGVWGYLNELLAADNPISELKVFDLRESMANGGGPACLRLRVVLTEEERRAVNPAVMMNDTLFNALNDWVDRYYRDRLTAADLADPQLLREGREALDVLSQLLNLGSVYPFQREGGGNG | soluble
MGSDKIHHHHHHMTTDNAKAQLTSSSGGNIIVVSNRLPVTITKNSSTGQYEYAMSSGGLVTALEGLKKTYTFKWFGWPGLEIPDDEKDQVRKDLLEKFNAVPIFLSDEIADLHYNGFSNSILWPLFHYHPGEINFDENAWLAYNEANQTFTNEIAKTMNHNDLIWVHDYHLMLVPEMLRVKIHEKQLQNVKVGWFLHTPFPSSEIYRILPVRQEILKGVLSCDLVGFHTYDYARHFLSSVQRVLNVNTLPNGVEYQGRFVNVGAFPIGIDVDKFTDGLKKESVQKRIQQLKETFKGCKIIVGVDRLDYIKGVPQKLHAMEVFLNEHPEWRGKVVLVQVAVPSRGDVEEYQYLRSVVNELVGRINGQFGTVEFVPIHFMHKSIPFEELISLYAVSDVCLVSSTRDGMNLVSYEYIACQEEKKGSLILSEFTGAAQSLNGAIIVNPWNTDDLSDAINEALTLPDVKKEVNWEKLYKYISKYTSAFWGENFVHELYSTSSSSTSSSATKN | not soluble
MQYIKIHALDNVAVALADLAEGTEVSVDNQTVTLRQDVARGHKFALTDIAKGANVIKYGLPIGYALADIAAGEHVHAHNTRTNL | soluble
MRGSHHHHHHTDPALRAKKIPCVMMRGGTSRGAFLLAEHLPEDQTQRDKILMAIMGSGNDLEIDGIGGGNPLTSKVAIISRSSDPRADVDYLFAQVIVHEQRVDTTPNCGNMLSGVGAFAIENGLIAATSPVTRVRIRNVNTGTFIEADVQTPNGVVEYEGSARIDGVPGTAAPVALTFLNAAGTKTGKVFPTDNQIDYFDDVPVTCIDMAMPVVIIPAEYLGKTGYELPAELDADKALLARIESIRLQAGKAMGLGDVSNMVIPKPVLISPAQKGGAINVRYFMPHSCHRALAITGAIAISSSCALEGTVTRQIVPSVGYGNINIEHPSGALDVHLSNEGQDATTLRASVIRTTRKIFSGEVYLPGLCGR | soluble
MSELDQLRQEAEQLKSQIREARKSANDTTLATVASNLEPIGRIQMRTRRTLRGHLAKIYAMHWASDSRNLVSASQDGKLIVWDSYTTNKVHAIPLRSSWVMTCAYAPSGSFVACGGLDNICSIYSLKTREGNVRVSRELPGHTGYLSCCRFLDDNQIVTSSGDMTCALWDIETGQQCTAFTGHTGDVMSLSLSPDFRTFISGACDASAKLWDIRDGMCKQTFPGHESDINAVAFFPSGNAFATGSDDATCRLFDIRADQELAMYSHDNIICGITSVAFSKSGRLLFAGYDDFNCNVWDSMRQERAGVLAGHDNRVSCLGVTEDGMAVCTGSWDSFLKIWN | soluble
KILLKTSENGLDLEKPYYQAVIRRWQNKITDADTRRETVSAVSPKIILNDAPKWAVMLETEWQDGEWFEGRLAQEWLDKGVATNREQVAALETELKQKPAQLLIGVRAQTVPDRGVLRQIVRLSEAAQGGAVVQLLAEQGLSDDLSEKLEHWRNALAECGAAWLEPDRAAQEGRLKDQ | not soluble
MSQSISLKGSTRTVTEFFEYSINSILYQRGVYPAEDFVTVKKYDLTLLKTHDDELKDYIRKILLQVHRWLLGGKCNQLVLCIVDKDEGEVVERWSFNVQHISGNSNGQDDVVDLNTTQSQIRALIRQITSSVTFLPELTKEGGYTFTVLAYTDADAKVPLEWADSNSKEIPDGEVVQFKTFSTNDHKVGAQVSYKY | soluble
MSLGEPEELVIGGVFSLSSGTSVEACRQALAGAMAAVEWVNSNGGVNIGGSKVPVRLLQEDDKGDPANAVRLIEYMARQRGVGVMLAPCDPGVLVDAVEAARGYGVVSIVYGDAPASVADPGGKTLLVGAPAEEYFTPVLEMVSILDIQSRNLAIVYQDTGFAAAVAEATRNRAVEQGFVVVLYSAYPPQAGEEELGTLALRLQASNPDVIIAIGGFRDGVELVRAMSSYGVEAKFIAMAVAPSVPEFYSELGALSQAILYPTLWELASKPYTTAEGYEWFGPSREEFYSLFREAIESLGHPVSEPGYHAAMAALAVLAVAKAAEEAGSLDPDAIYESLKNIKIMTFAGPFDLNPETGLQNEREVLVGQWINGRRFTVWPVGQAYATPVYPHEGHHHHHH | soluble
MPGSRTYRKVDPPDVEQLGRSSWTLLHSVAASYPAQPTDQQKGEMKQFLNIFSHIYPCNWCAKDFEKYIRENAPQVESREELGRWMCEAHNKVNKKLRKPKFDCNFWEKRWKDGWDE | not soluble
GSPALDTGTTEEDRLKIDVIDWLVFDPAQRAEALKQGNAIMRKFLASKKHEAAKEVFVKIPQDSIAEIYNQCEEQGMESPLPAEDDNAIREHLCIRAYLEAHETFNEWFKHMNSVPQKPALIPQPTFTEKVAHEHKEKKYEMDFGIWKGHLDALTADVKEKMYNVLLFVDGGWMVDVREDAKEDHERTHQMVLLRKLCLPMLCFLLHTILHSTGQYQECLQLADMVSSERHKLYLVFSKEELRKLLQKLRESSLMLLDQGLDPLGYEIQLSGRIVTD | soluble
GHGHMHGRLKVKTSEEQAEAKRLEREQKLKLYQSATQAVFQKRQAGELDESVLELTSQILGANPDFATLWNCRREVLQHLETEKSPEESAALVKAELGFLESCLRVNPKSYGTWHHRCWLLSRLPEPNWARELELCARFLEADERNFHCWDYRRFVAAQAAVAPAEELAFTDSLITRNFSNYSSWHYRSCLLPQLHPQPDSGPQGRLPENVLLKELELVQNAFFTDPNDQSAWFYHRWLLGAGSGRCELSVEKSTVLQSELESCKELQELEPENKWCLLTIILLMRALDPLLYEKETLQYFSTLKAVDPMRAAYLDDLRSKFLLENSVLKMEYA | soluble
MGSDKIHHHHHHMDFAAIDKQISALEACIDSTVEVTPGEQLSVGVDLGTAYIVVVVLNAAGSPVACAMEFAQVIKDGLVVDYVGATRIVRRLVQQLEERLGRQLTHAAIAVPPGTGHKDSNTHRHVVEGAGLEVTAILDEPTAANAVLGVQNGVIVDIGGGTTGLSVIEDGKVTYVADEPTGGTHVSLVLAGSYRISFTEAEELKKDQDRQREILPVVRPVIQKMASIVNRHIEGRDISAIYLVGGTCCLKDFETVFEKETGRPVYKPANPFLVTPLGIALNCNA | not soluble
MAADYTHFIHRQHAPPEVCLSAFSGHNDALDFPDSEGSPVSQSLIAALQNPALFPHPVEGFQVIETHISWVLLTGPFAYKVKKPVNFGFLDFTSLDAREHFCGEELRLNQRLTEDLYLEVLPITGSAEAPVLGGDGPAIEYVLKMRQFPQSQLLSTLQANSELTTAHIDEMARQIAHFHLNAPKVPAEHEAGTPESVMAPVRQNFEQIRPFLSDKADLQQLEALEAWAETSFERLKPLLAQRKSEGFIRECHGDIHLGNATLIDGKVVIFDCIEFNEPFRFTDVYADTGFLAMDLEDRGLKSLARRFISQYLELTGDYQGLELLNFYKAYRALVRAKVSLFSMPAEATPVQRATTLRQYRNYANLAESYSTIPSRFLAITSGISAVGKSRVAMRLVEALGAVRLRSDVERKRLFGEQQVPNDPHAGIYSSEASSATYARLHEIAETILRAGFPVVIDATYLKRAQRDAAAKVAEATGTPCLIIDCNAPEAVVASWLAQRQADQNDPSDATLEVIANQQATREALTDEELLRSKRIETNESGSLDALVANIRQRLPGLLEHHHHHH | not soluble
MSLTLRIALFGAGRIGHVHAANIAANPDLELVVIADPFIEGAQRLAEANGAEAVASPDEVFARDDIDGIVIGSPTSTHVDLITRAVERGIPALCEKPIDLDIEMVRACKEKIGDGASKVMLGFNRRFDPSFAAINARVANQEIGNLEQLVIISRDPAPAPKDYIAGSGGIFRDMTIHDLDMARFFVPNIVEVTATGANVFSQEIAEFNDYDQVIVTLRGSKGELINIVNSRHCSYGYDQRLEAFGSKGMLAADNIRPTTVRKHNAESTEQADPIFNFFLERYDAAYKAELATFAQGIRDGQGFSPNFEDGVIALELANACLESAQTGRTVTLNPANEGHHHHHH | soluble
MTVSPIDPVKLEKLAEVAIKVGLQLQKDQDLVITAPLAALPLVRLLTKHAYIAGGGLVTTFYSDEETTLSRYRHASDANFDRASGWLYEGMAKAYANGAARLAIAGDNPMLLAEEDPAKVARANKANSTAYKPALEKISNFDINWNIISYPNPSWAKQVFPGLTEDEAVRKLADAIFAASRVDVADPVAAWAQHNANLAKRSAWLNGERFSALHFTGPGTDVKIGLADGHEWHGGASMAKNGVTCNPNIPTEEVFTTPHALRVDGYVSSTKPLSHQGTLIDDIQVKFEAGRIVEAKASKGEAVLNKVLDTDEGARRLGEVALVPHSSPISASGILFYNTLFDENASCHIALGQCYSKCFLDGASLSQDQIKAQGGNSSLIHIDWMIGSNKVDIDGVKPDGSTVPVMRKGEWA | not soluble

Source: the DeepSol protein solubility set
